This data set concerns LL-37.

For Pseudomonas aeruginosa elastase, the “degradation of LL-37 (SDS-PAGE) and loss of bactericidal activity against E. faecalis” value was “LL-37 is degraded and inactivated by P. aeruginosa elastase”.

The record behind these values is patent publication US20040028672.
